According to US8580932B2, “Method of thermostabilization of a protein and/or stabilization towards organic solvents” (Masarykova Univerzita, priority 2011, dated 2013):

Key:
[1] = 12 different substrates; cited from earlier work
[2] = type: physicochemical, Sphingobium japonicum UT26; details: for ΔTm: compared to the wild type LinB; for Tm: ellipticity at 222 nm, 20 to 80° C., 1° C./min, 50 mM potassium phosphate buffer (pH 7.5)
Description: Circular dichroism spectra were recorded at 20° C. using a Jasco J-810 spectrometer (Jasco, Tokyo, Japan) coupled with Peltier temperature controller. Data were collected from 185 to 260 nm, at 100 nm/min, 1 s response time and 2 nm bandwidth using a 0.1 cm quartz cuvette containing the enzyme variant in 50 mM potassium phosphate buffer (pH 7.5). Each spectrum shown is the average of ten individual scans and was corrected for absorbance caused by the buffer. CD data were expressed in terms of the mean residue ellipticity (ΘMRE) using the equation: […]
Thermal unfolding of LinB enzyme variants was followed by monitoring the ellipticity at 222 nm over the temperature range of 20 to 80° C., with a resolution 0.1° C., at a heating rate 1° C./min. Recorded thermal denaturation curves were roughly normalized to represent signal changes between approximately 1 and 0 and fitted to sigmoidal curves using software Origin 6.1 (OriginLab, Massachusetts, USA). The melting temperatures (Tm) were evaluated as a midpoint of the normalized thermal transition.

[3] = Kinetic half-life assay of DhaA variants in 40% (v/v) DMSO; type: biochemical, Rhodococcus rhodochrous NCIMB 13064; details: 60 mM glycine buffer (pH 8.6), 37° C.
[4] = Haloalkane dehalogenase activity assay in the presence of organic solvents; type: biochemical; details: 100 mM glycine buffer (pH 8.6), 37° C., 1-iodohexane (FIG. 12)
Description: Haloalkane dehalogenase activity was assayed at 37° C. by a previously described method (Iwasaki, I., Utsumi, S., and Ozawa, T. 1952: New colorimetric determination of chloride using mercuric thiocyanate and ferric ion. Bulletin of the Chemical Society of Japan 25: 226-226). The released halide ions were analysed spectrophotometrically at 460 nm after a reaction with mercuric thiocyanate and ferric ammonium sulphate. The reaction mixture was composed of 100 mM glycine buffer (pH 8.6), 2 μl of substrate 1-iodohexane and appropriate amount of organic solvent. Solvent concentration was increased until the enzyme activity dropped below fifty per cent. The reaction was initiated by the addition of enzyme in a final concentration of 0.15 μM. The reaction was monitored by withdrawing samples at periodical intervals from the reaction mixture. The samples were immediately mixed with 35% nitric acid to terminate the reaction. Dehalogenation activity was quantified as a rate of product formation in time. Each activity was measured in 3-5 independent replicates and expressed as mean values of relative activity, represented percentage of activity in pure buffer.

[5] = Steady-state kinetics of haloalkane dehalogenases by isothermal titration calorimetry; type: biochemical; details: pH 8.6, 25° C.; for ar (relative activity): percentage of specific activity in glycine buffer
Description: Substrate to product conversion by the action of enzymes was carried out using VP-ITC isothermal titration microcalorimeter (MicroCal), by single injection method. The substrate 1-iodohexane was dissolved in 100 mM glycine buffer (pH 8.6) containing appropriate volume of organic solvent and equilibrated at 25° C. in the sample cell (1.4 ml). The reaction was initiated by injecting of 10 μl of 1 mg/ml enzyme solution dialyzed overnight against the same solution as used for dissolving of the substrate. The heat flow (μcal s^−1) was recorded as a function of time. The reaction rate was calculated according to the equation:
[formula] where V is the volume of the sample cell, [S] is substrate concentration and ΔH is the enthalpy of the conversion of substrate to product and was determined experimentally by titration of the substrate into the sample cell containing the enzyme. The evaluated rate of substrate depletion (−d[S]/dt), and corresponding substrate concentration were fitted by nonlinear regression to kinetic models by using Origin 6.1 software (OriginLab, Massachusetts, USA). Results

[6] = formamide 5% (v/v), 1-iodohexane

B1: L177P: LinB variant in the position 177 (protein, UniProt D4Z2G1 2-296, looked up, variant L177P)
Haloalkane dehalogenase: SLGAKPFGEKKFIEIKGRRMAYIDEGTGDPILFQHGNPTSSYLWRNIMPHCAGLGRLIACDLIGMGDSDKLDPSGPERYAYAEHRDYLDALWEALDLGDRVVLVVHDWGSALGFDWARRHRERVQGIAYMEAIAMPIEWADFPEQDRDLFQAFRSQAGEELVLQDNVFVEQVLPGPILRPLSEAEMAAYREPFLAAGEARRPTLSWPRQIPIAGTPADVVAIARDYAGWLSESPIPKLFINAEPGALTTGRMRDFCRTWPNQTEITVAGAHFIQEDSPDEIGAAIAAFVRRLRPA
activity with tested substrates [1]: did not show activity with any of tested substrates

B2: L177M: LinB variant in the position 177 (protein, UniProt D4Z2G1 2-296, looked up, variant L177M)
Haloalkane dehalogenase: SLGAKPFGEKKFIEIKGRRMAYIDEGTGDPILFQHGNPTSSYLWRNIMPHCAGLGRLIACDLIGMGDSDKLDPSGPERYAYAEHRDYLDALWEALDLGDRVVLVVHDWGSALGFDWARRHRERVQGIAYMEAIAMPIEWADFPEQDRDLFQAFRSQAGEELVLQDNVFVEQVLPGMILRPLSEAEMAAYREPFLAAGEARRPTLSWPRQIPIAGTPADVVAIARDYAGWLSESPIPKLFINAEPGALTTGRMRDFCRTWPNQTEITVAGAHFIQEDSPDEIGAAIAAFVRRLRPA
ΔTm [2]: −0.3 °C
Tm [2]: 47.78 ± 0.17 °C

B3: L177H: LinB variant in the position 177 (protein, UniProt D4Z2G1 2-296, looked up, variant L177H)
Haloalkane dehalogenase: SLGAKPFGEKKFIEIKGRRMAYIDEGTGDPILFQHGNPTSSYLWRNIMPHCAGLGRLIACDLIGMGDSDKLDPSGPERYAYAEHRDYLDALWEALDLGDRVVLVVHDWGSALGFDWARRHRERVQGIAYMEAIAMPIEWADFPEQDRDLFQAFRSQAGEELVLQDNVFVEQVLPGHILRPLSEAEMAAYREPFLAAGEARRPTLSWPRQIPIAGTPADVVAIARDYAGWLSESPIPKLFINAEPGALTTGRMRDFCRTWPNQTEITVAGAHFIQEDSPDEIGAAIAAFVRRLRPA
ΔTm [2]: 0.8 °C
Tm [2]: 48.85 ± 0.28 °C

B4: L177Q: LinB variant in the position 177 (protein, UniProt D4Z2G1 2-296, looked up, variant L177Q)
Haloalkane dehalogenase: SLGAKPFGEKKFIEIKGRRMAYIDEGTGDPILFQHGNPTSSYLWRNIMPHCAGLGRLIACDLIGMGDSDKLDPSGPERYAYAEHRDYLDALWEALDLGDRVVLVVHDWGSALGFDWARRHRERVQGIAYMEAIAMPIEWADFPEQDRDLFQAFRSQAGEELVLQDNVFVEQVLPGQILRPLSEAEMAAYREPFLAAGEARRPTLSWPRQIPIAGTPADVVAIARDYAGWLSESPIPKLFINAEPGALTTGRMRDFCRTWPNQTEITVAGAHFIQEDSPDEIGAAIAAFVRRLRPA
ΔTm [2]: 0.0 °C
Tm [2]: 48.08 ± 0.17 °C

B5: L177K: LinB variant in the position 177 (protein, UniProt D4Z2G1 2-296, looked up, variant L177K)
Haloalkane dehalogenase: SLGAKPFGEKKFIEIKGRRMAYIDEGTGDPILFQHGNPTSSYLWRNIMPHCAGLGRLIACDLIGMGDSDKLDPSGPERYAYAEHRDYLDALWEALDLGDRVVLVVHDWGSALGFDWARRHRERVQGIAYMEAIAMPIEWADFPEQDRDLFQAFRSQAGEELVLQDNVFVEQVLPGKILRPLSEAEMAAYREPFLAAGEARRPTLSWPRQIPIAGTPADVVAIARDYAGWLSESPIPKLFINAEPGALTTGRMRDFCRTWPNQTEITVAGAHFIQEDSPDEIGAAIAAFVRRLRPA
thermal stability compared to the wild type enzyme [2]: improvement in thermal stability
ΔTm [2]: 3.0 °C
Tm [2]: 51.01 ± 0.54 °C

B6: DhaA: haloalkane dehalogenase DhaA from Rhodococcus rhodochrous NCIMB13064 (protein, UniProt P0A3G2 1-293, looked up)
Haloalkane dehalogenase: MSEIGTGFPFDPHYVEVLGERMHYVDVGPRDGTPVLFLHGNPTSSYLWRNIIPHVAPSHRCIAPDLIGMGKSDKPDLDYFFDDHVRYLDAFIEALGLEEVVLVIHDWGSALGFHWAKRNPERVKGIACMEFIRPIPTWDEWPEFARETFQAFRTADVGRELIIDQNAFIEGALPKCVVRPLTEVEMDHYREPFLKPVDREPLWRFPNELPIAGEPANIVALVEAYMNWLHQSPVPKLLFWGTPGVLIPPAEAARLAESLPNCKTVDIGPGLHYLQEDNPDLIGSEIARWLPAL
deactivation in the presence of DMSO [3]: proceeded rapidly
Specific activity in glycine buffer [4]: 0.0355 μmol s^−1 mg^−1 of enzyme
K0.5 (concentration of substrate at half maximal velocity) [5, 6]: 4.2 µM
Ksi (substrate inhibition constant) [5, 6]: 0.6 mM
nH (Hill coefficient) [5, 6]: 2.0
ar (relative activity) ([5]; formamide 5% (v/v)): 130%
ar (relative activity) ([5]; glycine buffer (reference)): 100%
K0.5 (concentration of substrate at half maximal velocity) ([5]; glycine buffer, 1-iodohexane): 8.5 µM
Ksi (substrate inhibition constant) ([5]; glycine buffer, 1-iodohexane): 1.1 mM
kcat ([5]; glycine buffer, 1-iodohexane): 0.9 s⁻¹
nH (Hill coefficient) ([5]; glycine buffer, 1-iodohexane): 2.0
